The test system of test [1] is TRIM20. Nature of the test: TRIM20 mRNA levels by quantitative RT-PCR in THP-1 cells. Format: cell-based, human. Conditions: escalating doses for 4 h or 1,000 U/ml for indicated times. Here is the method:
(A and B) High content image analysis of LC3 puncta in (A) THP-1 cells or (B) human MDM cells treated with IFN-γ for 4 h. HC and mask overlays are as in FIG. 1. (C) Screen data from FIG. 1B showing average±range. (D) Knockdown efficacy of TRIMs were determined by RT-PCR. (E and F) THP-1 cells were treated with (E) escalating doses of IFN-γ for 4 h or (F) 1,000 U/ml of IFN-γ for indicated times, and TRIM20 mRNA levels were determined by quantitative RT-PCR. Values are standardized to (E) no IFN-γ control or (F) 0 h time point. (G) THP-1 cells were subjected to TRIM20 or scrambled siRNA, treated with IFN-γ for 4 h, and HC analysis performed. (H) Knockdown of TRIM20 mRNA levels was examined by quantitative RT-PCR. Values are standardized to control (Scr, scrambled; no IFN-γ). (I) LC3-II conversion in HEK293 cells transfected with GFP-TRIM20 (T20) or GFP. […]
(§1) Detection of IRF3 dimerization was performed by native polyacrylamide gel electrophoresis (PAGE) as previously described (Takahasi et al., 2003). Quantitative RT-PCR was performed as previously described (Kimura et al., 2013) using the following primer sets: ULK1, ([…], […]); BECN1, ([…], […]); ACTIN, ([…], […]); TRIM1, ([…], […]); TRIM5, ([…], […]); TRIM8, ([…], […]); TRIM16, ([…], […]); TRIM20, ([…], […]); TRIM21, ([…], […]); TRIM22, ([…], […]); TRIM28, ([…], […]); TRIM56, ([…], […]); and TRIM65, ([…], […]). […]

Test [2] has as its system primary human macrophages. As to the kind of experiment: High content analysis of LC3 puncta in primary human macrophages. Conditions: IFN-γ 4 h. Type of test: cell-based. As to the method: (A and B) High content image analysis of LC3 puncta in (A) THP-1 cells or (B) human MDM cells treated with IFN-γ for 4 h. HC and mask overlays are as in FIG. 1. (C) Screen data from FIG. 1B showing average±range. (D) Knockdown efficacy of TRIMs were determined by RT-PCR. (E and F) THP-1 cells were treated with (E) escalating doses of IFN-γ for 4 h or (F) 1,000 U/ml of IFN-γ for indicated times, and TRIM20 mRNA levels were determined by quantitative RT-PCR. Values are standardized to (E) no IFN-γ control or (F) 0 h time point. (G) THP-1 cells were subjected to TRIM20 or scrambled siRNA, treated with IFN-γ for 4 h, and HC analysis performed. (H) Knockdown of TRIM20 mRNA levels was examined by quantitative RT-PCR. Values are standardized to control (Scr, scrambled; no IFN-γ). (I) LC3-II conversion in HEK293 cells transfected with GFP-TRIM20 (T20) or GFP. Data, means±SE, n≥3 experiments, except panel (C). Scale bars, 5 μm. *P<0.05, ^†P≥0.05 (t test in (B) or ANOVA (other panels)).
High content imaging and analysis was performed using a Cellomics V^TI HCS scanner and iDEV software (ThermoScientific). […] Epifluorescnece images were machine analyzed using present scanning parameters and object mask definitions. Hoechst 33342 staining were used to automatically detect cellular outlines based on background staining of the cytoplasm, and the mean count of LC3 puncta per cell was determined.

Test [3] has as its system TRIM21. As to the kind of experiment: TRIM21 mRNA levels by quantitative RT-PCR in THP-1 cells. Conditions: 1,000 U/ml IFN-γ for indicated times. Format: cell-based, human. As to the method: (A) THP-1 cells were treated with 1,000 U/ml of IFN-γ for indicated times, and TRIM21 mRNA levels were determined by quantitative RT-PCR. (B) Co-immunoprecipitation analysis of GFP-TRIM20 with Flag-TRIM21 in HEK293 cells extracts. (C) Knockdown efficacy of TRIM21 level was examined by immunoblotting. (D) Levels of dimerized IRF3 were assessed by native PAGE from THP-1 cells subjected to TRIM21 or control knockdown, untreated with IFN-γ, and transfected with herring testis DNA (HT-DNA). (E and F) THP-1 cells subjected to TRIM21 or control knockdown were infected with a single-round infection HIV1 virus in the presence of 200 U/mL IFN-γ for 20 h, and (E) the levels of dimerized IRF3 or (F) mRNA levels of IFN-β were determined. […]
as §1

For test [4], the system named is THP-1 cells. Nature of the test: High content analysis of LC3 puncta in THP-1 cells (TRIM family screen conditions). Conditions: IFN-γ 4 h. Format: cell-based, human. Here is the method: (A) THP-1 cells were subjected to TRIM knockdown, treated with 1,000 U/mL IFN-γ for 4 h, and high content (HC) analysis was performed using a Cellomics HCS scanner (epifluorescence) and iDEV software. HC (magenta, endogenous LC3B immunofluorescence [IF]; blue, nuclei stained with Hoechst). Mask overlay, software-defined objects (primary objects, cell outlines; internal secondary objects, LC3 puncta). (B) Average count of LC3 puncta per cell from cells treated as in (A) (Data from two 96-well plates with identical siRNA arrangements; the corresponding data are shown in Supplementary FIG. 1C). Encircled are INF-γ-treated wells (right) and wells with vehicle controls (bottom left). TRIM knockdowns that reduced LC3 puncta readout in both two experiments by 3 SDs (horizontal dot lines) from the average of IFN-γ-treated controls (horizontal solid line) are indicated by corresponding TRIM numbers (open circle). TRIMs that were chosen in follow-up experiments in FIG. 1C are also indicated with number. (C) Similar to (B), except that THP-1 cells were subjected to specific TRIM or scrambled (Scr; control) knockdown, and were analyzed in more than quadruplicate manner. […] (E) THP-1 cells were treated with TRIM20 or Scr siRNAs, treated with or without IFN-γ for 4 h in the presence of bafilomycin A1, and LC3-II conversion was determined by immunoblots. […]

B1: IFN-γ: interferon-gamma (PeproTech), precision autophagy modulator (protein, UniProt P01579 24-161, looked up)
Interferon gamma: QDPYVKEAENLKKYFNAGHSDVADNGTLFLGILKNWKEESDRKIMQSQIVSFYFKLFKNFKDDQSIQKSVETIKEDMNVKFFNSNKKKRDDFEKLTNYSVTDLNVQRKAIHELIQVMAELSPAAKTGKRKRSQMLFRG
Regarding B1, the TRIM20 expression result in test [1] is on record as “responsive”. For the same molecule, the “autophagy induction (LC3 puncta per cell)” value in test [2] and in test [4] was “induced autophagy” in each case. Moreover, the TRIM21 expression entry in test [3] is “transiently induced”.

These data come from US10610564B2, “IRGM and precision autophagy controls for antimicrobial and inflammatory disease states and methods of detection of autophagy” (STC.UNM, priority 2015, dated 2020).
